# Test results from US20240218079A1, “PLASMA KALLIKREIN ANTIBODIES AND USES THEREOF” (Astria Therapeutics, Inc., priority 2021, published 2024).
# Residue numbers refer to the chain shown, from its start. Numbers in names are those of the source.
# B1: MAb4-YTE: MAb4 with M252Y, S254T, T256E; heavy chain SEQ ID NO: 10, light chain SEQ ID NO: 8 (antibody)
# heavy: QVQLVQSGAEVKKPGSSVKVSCKASGYAFSSYWMNWVRQAPGQGLEWIGQIYPGDDDTNYNAKFQGRVTITVDKSTTTAYMELSSLRSEDTAVYFCAGSLMVTTGAPFDYWGQGTTVTVSSASTKGPSVFPLAPSSKSTSGGTAALGCLVKDYFPEPVTVSWNSGALTSGVHTFPAVLQSSGLYSLSSVVTVPSSSLGTQTYICNVNHKPSNTKVDKRVEPKSCDKTHTCPPCPAPELLGGPSVFLFPPKPKDTLYITREPEVTCVVVDVSHEDPEVKFNWYVDGVEVHNAKTKPREEQYNSTYRVVSVLTVLHQDWLNGKEYKCKVSNKALPAPIEKTISKAKGQPREPQVYTLPPSREEMTKNQVSLTCLVKGFYPSDIAVEWESNGQPENNYKTTPPVLDSDGSFFLYSKLTVDKSRWQQGNVFSCSVMHEALHNHYTQKSLSLSPG
# light: DIQMTQSPSSLSASVGDRVTITCKASQDVGIAVAWYQQKPGKAPKFLIYYASHRGWGVPDRFSGSGSGTDFTLTISSLQPEDFATYFCQQYRSYPLTFGQGTKLEIKRTVAAPSVFIFPPSDEQLKSGTASVVCLLNNFYPREAKVQWKVDNALQSGNSQESVTEQDSKDSTYSLSSTLTLSKADYEKHKVYACEVTHQGLSSPVTKSFNRGEC
# B2: MAb1: murine hybridoma lineage 24L13 anti-plasma kallikrein antibody; VH SEQ ID NO: 1, VL SEQ ID NO: 2 (antibody, V domains shown)
# VH: QVQLQQSGAELVKPGASVKISCKASGYAFSSYWMNWVKQRPGEGLEWIGQIYPGDDDTNYNGKFKGKATLTVDKSSTTAYMQLSSLTSEDSAVYFCAGSLMVTTGAPFDYWGQGTTLTVSS
# VL: DIVMTQSHKFMSTSVGDRVSITCKASQDVGIAVAWYQQKPGQSPKFLIYWASTRHTGVPDRFTGSGSGTDFTLTIRNVQSEDLSDYFCQQYRSYPLTFGSGTKLELK
# B3: MAb2: optimally humanized variant VH5_VL4; VH SEQ ID NO: 3, VL SEQ ID NO: 4 (antibody, V domains shown)
# VH: QVQLVQSGAEVKKPGSSVKVSCKASGYAFSSYWMNWVRQAPGQGLEWIGQIYPGDDDTNYNGKFQGRVTITVDKSTTTAYMELSSLRSEDTAVYFCAGSLMVTTGAPFDYWGQGTTVTVSS
# VL: DIQMTQSPSSLSASVGDRVTITCKASQDVGIAVAWYQQKPGKAPKFLIYWASTRHTGVPDRFSGSGSGTDFTLTISSLQPEDFATYFCQQYRSYPLTFGQGTKLEIK
# B4: MAb3: humanized, liability fixed VH SEQ ID NO: 5 with CDR2-optimized VL SEQ ID NO: 6 (antibody, V domains shown)
# VH: B3 VH with G62A
# VL: B3 VL with W50Y, T53H, H55G, T56W
# Tests used:
# human plasma kallikrein = target: T1, human plasma kallikrein (Homo sapiens, UniProt P03952); assay: SPR binding to human plasma kallikrein; conditions: pH 7.4, 37° C.
# T1 construct: active human plasma kallikrein (pkal, Enzyme Research Labs, South Bend, IN); purchased Enzyme Research Labs
# T1 sequence (P03952 20-390 limits assumed): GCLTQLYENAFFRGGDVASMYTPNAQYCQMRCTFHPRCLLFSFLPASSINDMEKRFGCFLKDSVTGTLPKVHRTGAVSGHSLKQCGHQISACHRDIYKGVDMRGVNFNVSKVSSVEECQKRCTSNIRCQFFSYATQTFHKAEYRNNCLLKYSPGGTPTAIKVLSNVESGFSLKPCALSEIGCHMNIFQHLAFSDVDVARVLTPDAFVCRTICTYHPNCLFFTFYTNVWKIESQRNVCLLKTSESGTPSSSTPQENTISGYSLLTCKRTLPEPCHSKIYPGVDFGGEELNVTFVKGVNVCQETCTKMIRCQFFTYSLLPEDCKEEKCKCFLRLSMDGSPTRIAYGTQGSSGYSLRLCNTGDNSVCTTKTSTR
# T1 sequence (P03952 391-638 limits assumed): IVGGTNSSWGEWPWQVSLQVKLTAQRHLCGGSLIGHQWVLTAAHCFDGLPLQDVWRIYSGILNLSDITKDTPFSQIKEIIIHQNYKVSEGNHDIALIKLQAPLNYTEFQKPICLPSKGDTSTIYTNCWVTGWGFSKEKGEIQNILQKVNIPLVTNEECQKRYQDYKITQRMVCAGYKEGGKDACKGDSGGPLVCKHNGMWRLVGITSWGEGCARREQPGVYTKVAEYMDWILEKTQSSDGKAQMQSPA
# Protocol: Kinetic properties and selectivity of lead pkal antibodies were examined by SPR at 37° C. and either pH 7.4 or pH 6.0.
# trypsin, human pancrease = assay: Trypsin inhibition assay; assay type: biochemical; conditions: dilution series starting at 1 μM
# Protocol: Fluorescence intensity was measured every 5 minutes. Gabexate mesylate was used as a positive control, in a dilution series starting at 1 μM. The assay was performed in duplicate.
# plasma kallikrein (pkal) = target: T2, plasma kallikrein (pkal) (Homo sapiens, UniProt P03952); assay: HMWK cleavage functional assay (bradykinin release measured by ELISA); assay type: biochemical; conditions: inhibition of HMWK cleavage by pkal
# T2 construct: active human plasma kallikrein (pkal, Enzyme Research Labs, South Bend, IN); purchased Enzyme Research Labs
# T2 sequence (P03952 20-390 limits assumed): as the sequence (P03952 20-390 limits assumed) above
# T2 sequence (P03952 391-638 limits assumed): as the sequence (P03952 391-638 limits assumed) above
# Protocol: Specifically, the ability of each antibody to inhibit pkal cleavage of its natural substrate, High Molecular Weight Kininogen (HMWK) was observed. In these experiments 10 or 30 nM pkal was preincubated with inhibitory antibodies for 1 hr at RT, then 600 nM HMWK was added and incubated for 20 minutes and the reaction was quenched by adding 0.5 μM AEBSF. The concentration of bradykinin (BK) released from HMWK as catalyzed by pKal was measured using 1/100 dilution of the reaction product in a commercial ELISA kit (Enzo, Farmingdale, NY).
# The HMWK assay parameters were physiologically relevant as the concentration of high molecular weight kininogen used is the concentration that circulates in humans and the concentration of plasma kallikrein used is in the range of what has been estimated in plasma from patients with hereditary angioedema (HAE) during an attack.
# The IC90 values for the antibodies were also determined to provide an index of relative potency. In HAE, the therapeutically relevant level of inhibition to prevent HAE attacks is thought to be approximately 90% inhibition of plasma kallikrein. This corresponds to a measurement referred to as IC90, which is the concentration of an agent that results in 90% inhibitory effect.
# human FcRn = target: T3, human FcRn (Homo sapiens, UniProt P55899); assay: hFcRn binding by SPR (Biacore T200)
# T3 construct: purchased Sino Biological CT009-H08H
# T3 sequence (P55899 24-297 limits assumed): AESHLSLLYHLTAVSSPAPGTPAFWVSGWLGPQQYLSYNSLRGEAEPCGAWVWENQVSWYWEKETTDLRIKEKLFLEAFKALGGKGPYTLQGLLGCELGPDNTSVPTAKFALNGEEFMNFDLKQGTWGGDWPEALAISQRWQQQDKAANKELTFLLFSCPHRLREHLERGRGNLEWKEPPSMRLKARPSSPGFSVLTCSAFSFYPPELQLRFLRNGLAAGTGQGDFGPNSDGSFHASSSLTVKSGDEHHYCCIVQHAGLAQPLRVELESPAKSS
# T3 sequence (P61769 21-119 partner): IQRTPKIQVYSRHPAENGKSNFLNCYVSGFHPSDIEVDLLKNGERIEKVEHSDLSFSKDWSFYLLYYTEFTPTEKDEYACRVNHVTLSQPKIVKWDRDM
# Protocol: IgG1 was used as a control antibody. The antibody samples were assessed for FcRn binding via SPR using a Biacore T200. The Biacore chip was a CMS coupled with human FcRn (Sino Biological, Cat. No. CT009-H08H). Running buffer used was PBS 0.05% P20 and pH 6 or pH 7.4.
# [1] = Cynomolgus pharmacokinetic studies; assay type: in vivo, cynomolgus monkey; conditions: male cynomolgus, IV infusion 5 mg/kg
# Protocol: These studies of these antibodies were conducted concurrently, but were independent studies rather than a head-to-head comparison. Cynomolgus monkeys, LM-naïve or naive, 3.0-4.0 kg, male, N=18, were purchased from Hainan Jingang Biotech Co. LTD. The antibodies were prepared in 20 mM Histidine, 150 mM NaCl, 0.01% Tween 80, pH 6.5. In these studies, all antibodies were administered to male cynomolgus monkeys (N=3) via IV infusion over 10 min at 5 mg/kg. Blood was collected from cephalic and saphenous veins into pre-cooled citrate acid tubes at each time point. […] Blood samples were put on wet ice and centrifuged at 4° C. to obtain plasma within 15 minutes of sample collection. Plasma samples were stored at approximately −70 C. Presence of each anti-plasma kallikrein antibody in the plasma samples was determined via ELISA using a plate coated with anti-human antibody as the capture agent and human IgG-heavy and light chain monkey-adsorbed antibody as the detection reagent (Southern Biotech, Cat #: 2049-01 and Bethyl, Cat #A80-319P). ELISA plates were read using a SpectraMax M2.
# pkal (1 nM enzyme) = target: T4, pkal (1 nM enzyme) (Homo sapiens, UniProt P03952); assay: Inhibition of pkal enzymatic activity in a fluorogenic peptide substrate assay (screening); assay type: biochemical
# T4 construct: active human plasma kallikrein (pkal, Enzyme Research Labs, South Bend, IN); purchased Enzyme Research Labs, South Bend, IN
# T4 sequence (P03952 391-638 limits assumed): as the sequence (P03952 391-638 limits assumed) above
# T4 sequence (P03952 20-390 limits assumed): as the sequence (P03952 20-390 limits assumed) above
# Protocol: (§1) Monoclonal IgGs were retested for pkal and prekal binding by ELISA, and were screened for inhibition of pkal (1 nM enzyme) enzymatic activity in a fluorogenic peptide substrate assay (Kenniston et al. J Biol Chem. 2014 Aug. 22; 289(34):23596-608). […] This hybridoma was sequenced to determine heavy and light chain variable domains (SEQ ID NO: 1 and SEQ ID NO: 2; MAb1). […] The nucleic acid sequence of the heavy chain variable domain of MAb1 is provided as SEQ ID NO: 33 and the nucleic acid sequence of the light chain variable domain of MAb1 is provided as SEQ ID NO: 34.
# human pkal and prekal = assay: ELISA for binding to human pkal and prekal; conditions: monoclonal IgG from hybridoma
# Protocol: Five prekallikrein (prekal) knock-out mice were immunized via the hock route with active human plasma kallikrein (pkal, Enzyme Research Labs, South Bend, IN). When serum titers indicated a robust immune response, draining lymph nodes were harvested, and lymphocytes were fused with a myeloma line using electrofusion. Resulting hybridomas were plated in thirty 384-well plates, and screening by ELISA for binding to human pkal and prekal. Hybridoma lines with preferential binding to pkal were subcloned and expanded.
# as §1
molecule,measurement,setting,value
B1,Ka,human plasma kallikrein,69000 M⁻¹ s⁻¹
same,Kd,human plasma kallikrein,7.3e-05 s⁻¹
same,inhibition of trypsin activity,"trypsin, human pancrease",did not inhibit trypsin activity
same,Hill slope,plasma kallikrein (pkal),~2
same,hFcRn Binding Ka,human FcRn; pH 6.0,184000 M⁻¹ s⁻¹
same,hFcRn Binding Kd,human FcRn; pH 6.0,0.0277 s⁻¹
same,hFcRn binding at pH 7.4,"human FcRn; pH 7.4, data not shown",no evidence of binding
same,CI (mL/day/kg) (Mean ± SD),[1],1.44 ± 0.33 mL/day/kg
same,T ½ (days) (Mean ± SD),[1],33.6 ± 8.3 days
same,Vss (mL/kg) (Mean ± SD),[1],66.8 ± 6.1 mL/kg
same,terminal half-life,[1],approximately 34 days
B2,inhibition of pkal enzymatic activity (in words),pkal (1 nM enzyme),inhibitory
same,selectivity for pkal over prekal by ELISA,human pkal and prekal,selective for pkal
B3,inhibition of pkal enzymatic activity (in words),pkal (1 nM enzyme),maintained both binding affinity and inhibitory potency
B4,inhibition of pkal enzymatic activity (in words),pkal (1 nM enzyme),maintained selectivity and activity
